Patent US20220073608A1 (JIANGSU HUAIYU PHARMACEUTICAL, published 2022)

T1: mouse SEMA4D, full length, on CHO-K1 cells (CHO-K1 mSEMA4D) (mouse, UniProt O09126 24-861)
T1 construct: whole, on cells; also called murine SEMA4D recombinant cells
T1 sequence (looked up): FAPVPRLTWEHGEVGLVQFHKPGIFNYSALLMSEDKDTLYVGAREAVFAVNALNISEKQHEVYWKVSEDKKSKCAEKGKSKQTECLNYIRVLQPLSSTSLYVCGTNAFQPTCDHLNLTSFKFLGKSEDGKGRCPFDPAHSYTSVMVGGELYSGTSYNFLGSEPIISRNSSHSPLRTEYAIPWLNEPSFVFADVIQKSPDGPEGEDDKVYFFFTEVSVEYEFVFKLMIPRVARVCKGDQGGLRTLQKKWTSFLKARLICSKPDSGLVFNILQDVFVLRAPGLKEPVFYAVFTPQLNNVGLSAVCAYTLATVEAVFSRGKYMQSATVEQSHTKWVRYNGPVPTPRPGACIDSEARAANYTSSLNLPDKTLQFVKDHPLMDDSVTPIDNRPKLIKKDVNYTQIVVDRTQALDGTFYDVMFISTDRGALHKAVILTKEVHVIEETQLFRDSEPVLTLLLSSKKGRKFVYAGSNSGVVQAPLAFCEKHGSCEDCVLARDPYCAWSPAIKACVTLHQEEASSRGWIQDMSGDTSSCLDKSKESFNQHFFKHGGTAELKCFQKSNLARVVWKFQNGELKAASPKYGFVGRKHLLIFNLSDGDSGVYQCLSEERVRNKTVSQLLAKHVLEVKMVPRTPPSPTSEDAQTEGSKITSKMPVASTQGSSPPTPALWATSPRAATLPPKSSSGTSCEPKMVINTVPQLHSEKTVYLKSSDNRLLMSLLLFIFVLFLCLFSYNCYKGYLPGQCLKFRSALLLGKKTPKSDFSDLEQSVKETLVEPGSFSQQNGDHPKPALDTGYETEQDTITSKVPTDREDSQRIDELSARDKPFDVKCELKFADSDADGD

T2: hSEMA4D ECD-His (His-tagged human SEMA4D protein extracellular domain, Met22-Arg734) (human, UniProt Q92854 22-734)
T2 construct: Expressed in CHO-S cells, purified on Ni column; also called protein immunogen; immunogen A; not shown: His tag of the pCP vector
T2 sequence: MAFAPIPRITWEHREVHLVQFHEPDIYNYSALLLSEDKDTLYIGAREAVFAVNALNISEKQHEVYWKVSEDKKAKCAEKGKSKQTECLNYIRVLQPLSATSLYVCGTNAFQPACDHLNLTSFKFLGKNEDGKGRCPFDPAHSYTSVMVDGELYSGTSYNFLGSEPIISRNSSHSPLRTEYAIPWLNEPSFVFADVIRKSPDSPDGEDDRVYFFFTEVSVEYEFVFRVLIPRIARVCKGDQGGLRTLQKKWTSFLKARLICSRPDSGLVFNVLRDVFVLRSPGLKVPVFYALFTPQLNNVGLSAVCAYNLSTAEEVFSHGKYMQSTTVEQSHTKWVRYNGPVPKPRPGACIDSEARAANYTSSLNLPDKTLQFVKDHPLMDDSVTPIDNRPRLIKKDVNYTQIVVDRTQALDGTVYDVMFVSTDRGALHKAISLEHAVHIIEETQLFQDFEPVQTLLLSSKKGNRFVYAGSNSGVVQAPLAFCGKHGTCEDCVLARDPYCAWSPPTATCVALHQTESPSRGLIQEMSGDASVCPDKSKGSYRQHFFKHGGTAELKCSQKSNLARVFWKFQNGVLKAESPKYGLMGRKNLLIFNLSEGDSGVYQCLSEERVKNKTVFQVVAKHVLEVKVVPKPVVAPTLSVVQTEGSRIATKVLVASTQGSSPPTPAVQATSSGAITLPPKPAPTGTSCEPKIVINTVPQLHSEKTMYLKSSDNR


What was measured:
[1] = target: T3, monkey SEMA4D, full length, on CHO-K1 cells (CHO-K1 cSEMA4D) (monkey); test: FACS, CHO-K1 cSEMA4D cells; Ab 0.0213 nM
T3 construct: whole, on cells; also called monkey SEMA4D recombinant cells
Description: (§1) After the cells were counted, they were diluted with PBS to 2×10⁶ cells per milliliter. After washing, 100 μL of diluted and purified leading antibodies was added to each well and the plate was incubated for 1 hour on ice. […] Cells were washed 2 times by centrifugation with FACS buffer. The cells were suspended with 200 μL of FACS buffer, FACS (FACS Verse, purchased from BD) was used to detect and analyze the results.

[2] = target: T1, mouse SEMA4D, full length, on CHO-K1 …; test: FACS, CHO-K1 mSEMA4D cells; Ab 0.000853 nM
Description: as §1

[3] = target: T2, hSEMA4D ECD-His (His-tagged human …); test: ELISA, coated hSEMA4D ECD-His; Ab 0.00213 nM
Description: (§2) First, hSEMA4D ECD-His was diluted with PBS to a final concentration of 1.0 μg/mL, and then was added to a 96-well ELISA plate, 100 μL per well, sealed with plastic film and incubated overnight at 4° C. On the next day, the plate was washed with a plate washing solution, that is, PBS buffer containing 0.05% (v/v) Tween20, for 4 times, and added with blocking solution, that is, PBS buffer containing 0.05% (v/v) Tween20 and 2% (w/w) BSA, blocked at 37° C. for 1 hour. The blocking solution was poured out and the plate was washed 4 times with the plate washing solution. 100 μL of the purified leading antibodies obtained in Examples 1 and 2 was added to each well. After incubation at 37° C. for 1 hour, the plate was washed 4 times with a plate washing solution. 100 μL of horseradish peroxidase (HRP) labeled secondary antibody (purchased from Sigma) was added at a dilution of 1:10000 to each well, and the plate was incubated at 37° C. for 1 hour, and washed 4 times with a plate washing solution. 100 μL TMB substrate was added to each well, and the plate was incubated at room temperature for 5 minutes, and added with 100 μL stop solution (1.0N HCl) to each well. A microplate reader (SpectraMax M5e, purchased from Molecular Device) was used to read the A450 nm value. […] Wherein, the data in the table was the OD450 nm value.

[4] = target: T3, monkey SEMA4D, full length, on CHO-K1 …; test: FACS, CHO-K1 cSEMA4D cells; Ab 66.7 nM
Description: as §1

[5] = target: T1, mouse SEMA4D, full length, on CHO-K1 …; test: FACS, CHO-K1 mSEMA4D cells; Ab 2.67 nM
Description: as §1

[6] = target: T2, hSEMA4D ECD-His (His-tagged human …); test: ELISA, coated hSEMA4D ECD-His; Ab 0.0107 nM
Description: as §2

Binder | MFI [1] | MFI [2] | OD450 nm [3] | MFI [4] | MFI [5] | OD450 nm [6]
37F11F9 (antibody, V domains shown, Mouse monoclonal antibody purified from hybridoma supernatant on protein A) VH: EVQLQQSGPVLVKPGASVKMSCKASGYTFTDYYMNWVKQSHGKSLEWIGLINPYSGGSTFNQKFKAKATLTVDKSSSSAYMDLNSLTSEDSAVYYCARVGDGYYGVTHGMDYWGQGTSVTVSS VL: DIVMTPSQKFMSTTVGDRVSITCKASQNVGTAVAWYQQKPGQSPTILIYSASNRYTGVPDRFTGSGSGTDFTLTISNMKSEDLADYFCQQYYIYPFTFAAGTKLELK | 103 | 29.7 | 0.0929 | 2520 | 30.6 | 0.131
32C8F10 (antibody, V domains shown, Mouse monoclonal antibody purified from hybridoma supernatant on protein A) VH: EVQLQQSGAELVRPGASVKLSCTASGFNIKDEYIHWVKQRPEQGLEWIGWIDPANGHTEYASRFQAKATITADTSSNTAYLQLSSLTSEDTAVYYCTTGDYDGFAYWGQGTLVTVST VL: QIVLTQSPAIMSASPGEKVTISCSARSSVSYMYWYQQKPGSSPKPWIYRTSNLASGVPARFSGSGSGTSYSLTISSMEAEDAATYYCQHYHTYPYTFGGGTKLEIK | 291 | 30.4 | 0.0858 | 5780 | 30.7 | 0.207
31G10C5 (antibody, V domains shown, Mouse monoclonal antibody purified from hybridoma supernatant on protein A) VH: EVQLQQSGAELVRPGASVKLSCTASGFNIKDDYIHWVKQRPEQGLEWIGWIDPANGHIEYASNFQAKATITADTSSNTAYLQLSSLTSEDTAVYYCTTGDYDGFTYWGQGTLVTVST VL: QIVLTQSPAIMSASPGEKVTISCSARSSVSYMYWYQQKPGSSPKPWIYRTSNLASGVPARFSGSGSGTSYSLTISSMEAEDAATYYCQHYHTYPYTFGGGTKLEIK | 414 | 30.1 | 0.109 | 4600 | 30.1 | 0.197
31C11G2 (antibody, V domains shown, Mouse monoclonal antibody purified from hybridoma supernatant on protein A) VH: EVQLQQSGAELVRPGASVKLSCTASGFNIKDEYIHWVKQRPEQGLEWIGWIDPANGHTEYASRFQAKATITADTSSNTAYLQLSSLTSEDTAVYYCTTGDYDGFVYWGQGTLVTVST VL: QIVLTQSPAIMSASPGEKVTIFCSARSSVSYMYWYQQKPGSSPKPWIYRTSNLASGVPARFSGSGSGTSYSLTISSMEAEDAATYYCQHYHTYPYTFGGGTKLEIK | 422 | 30.9 | 0.141 | 4370 | 30.5 | 0.337
42B7G2 (antibody, V domains shown, Mouse monoclonal antibody purified from hybridoma supernatant on protein A) VH: QVQLQQSGAELARPGASVKLSCKASGYTFTDYGISWVKQRTGQGLEWIGEIYLRNDNSYYNEKFKGKATLTADKSSNTAYMELRSLTSEDSAVYFCARWGDHGNNYEDAMDYWGQGTSVTVSS VL: DIVLTQSPASLAMSLGKRATISCRASESVSIIGSNLIHWYQQKPGQPPKLLIYHASNLETGVPARFSGSGSRTDFTLTIDPVEEDDVAIYYCLQSRKVPYTFGGGTKLEIK | 216 | 31.1 | 0.11 | 2670 | 31 | 0.25
37C4F7 (antibody, V domains shown, Mouse monoclonal antibody purified from hybridoma supernatant on protein A) VH: EFQLQQSGPEVVKPGASVKISCKASGYSFTDYNMNWMKQSKGKSLEWIGVINPNYGTTTYNQNFKGKATLTVDQSSSTAYMQLNSLTSEDSAVYYCARDMYYVYAYYTMDYWGQGTSVTVSS VL: DVVMTQTPLSLPVSLGDQASISCRSSQSLVHSNGHTYLHWYLQRPGQSPTLLIYKVSNRFSGVPDRFSGSGSGTDFTLKISRVEAEDLGVYFCSQGTHVPWTFGGGTKLEIK | 79.4 | 30.2 | 0.0673 | 2900 | 30 | 0.0864
38H2E3 (antibody, V domains shown, Mouse monoclonal antibody purified from hybridoma supernatant on protein A) VH: EFQLQQSGPEVVKPGASVKISCKASGYSFTDYNMNWMKQSKGKSLEWIGVISPDYGTTTYNQNFKDKATLTVDQSSSTAYMQLNSLTSEDSAVYYCAKDMYYVYAYYTMDYWGHGTSVTVSS VL: DVVMTQTPLSLPVSLGDQASISCRSSQSLVHSNGHTYLHWYLQRPGQSPTLLIYKVSNRFSGVPDRVSGSGSGTDFTLKISRVEAEDLGVYFCSQGTHVPRTFGGGTKLEIK | 69.1 | 30.1 | 0.0738 | 2890 | 30.7 | 0.0878
